Test results taken from paper PMC11898079, “Single-Molecule Imaging of Wood Xylans on Surfaces and Their Interaction with GH11 Xylanase” (Biomacromolecules, 2025).
Values joined by “and” are separate entries in the source; they are usually repeats but may differ in a detail not shown here. Equal values may be shown once.

Target: the molecule itself
Test: high-speed atomic force microscopy (HS-AFM); xylanase alone on a clean mica surface, tapping mode, 100 mM sodium phosphate buffer pH 6; 2 uL of 12.5 ug/mL xylanase added into 80 uL buffer during imaging; self-association seen as transient dimers and trimers of single molecules on the surface

B1: Endo-1,4-β-D-xylanase from Neocallimastix patriciarum (GH11) (enzyme)
chain: AEFQSFCSSASHSGQSVKVTGNKVGTIGGVGYELWADSGNNSATFYSDGSFSCTFQNAGDYLCRSGLSFDSTKTPSQIGRMKADFKLVKQNSSNVGYSYVGVYGWTRSPLVEYYIVDNWLSPFPPGDWVGNKKHGSFTIDGAQYTVYENTRTGPSIDGDTTFNQYFSIRQQARDCGTIDISAHFDQWEKLGMTMGKLHEAKVLGEAGNVNGGASGTADFPYAKVYIGD
notes: Endo-1,4-β-D-xylanase, glycoside hydrolase family 11, Neocallimastix patriciarum; printed Mw 25,800 g/mol; Commercial enzyme; also called GH11 xylanase; GH11 endoxylanase; source: bought: Megazyme Ltd
- stoichiometry N: 2 and 3
